# Test results taken from US20140220033A1, “Administration of an Anti-Activin-A Compound to a Subject” (Santa Maria Biotherapeutics, Inc., priority 2013, published 2014).
# T1: activin-A (Mus musculus, UniProt Q04998)
# T1 construct: from tissue; host or cells: serum of inhibin-alpha knockout (inh-KO) mice and wild-type littermates
# T1 sequence (Q04998 309-424): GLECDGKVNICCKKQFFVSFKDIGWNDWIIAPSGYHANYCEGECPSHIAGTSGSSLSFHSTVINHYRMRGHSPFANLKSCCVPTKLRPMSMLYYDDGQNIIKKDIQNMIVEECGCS
# Columns and labels:
# activin-A = target: T1, activin-A; assay: Serum activin-A levels in inh-KO mice (ELISA); assay type: in vivo; conditions: single dose 30 mg/kg SC
# Experimental: (§1) 12-week-old female and 8-week-old male inh-KO mice with fully established ovarian or testicular tumors received a single injection of PBS or sActRIIB (30 mg/kg, SC). As a control, age-matched wild-type littermates received a single injection of PBS. Ovarian and testicular organ weights were determined by necropsy 14 days after the injection.
# All serum samples from ovarian cancer patients and healthy subjects were collected under informed consent and were purchased from Bioreclamation, Inc. The serum samples were diluted in buffer (DY995, R&D Systems) and pretreated overnight at 4° C. with 4 M urea (Sigma) to dissociate any protein bound to activin-A. The samples were then transferred to 96 well plates pre-coated with an activin-A monoclonal antibody. After 2 hr incubation at room temperature and a washing step (0.05% Tween 20 in DPBS), a biotin-labeled activin-A monoclonal antibody was added for 1 hr at room temperature. […] An acidic stopping solution (KPL) was added and the degree of enzymatic turnover of the substrate was determined by wavelength absorbance measurement at 450 nm. The absorbance measured is directly proportional to the concentration of activin-A present. A standard curve of absorbance versus activin-A concentration was used to determine the amount of Activin-A in the test sample. Serum activin-A levels in inh-KO mice were measured by using ELISA.
# [1] = system: testicular tumors in inh-KO mice; assay: Testicular tumor mass in inh-KO mice (necropsy); assay type: in vivo, mouse; conditions: 8-week-old male inh-KO mice; single dose 30 mg/kg SC; necropsy 14 days after injection; FIG. 4A, 4B
# Experimental: as §1
# E-cadherin = E-cadherin in ovarian tumors of inh-KO mice (Western blot, immunostaining); assay type: in vivo, mouse
# Experimental: as §1
# (§2) Protein extracts were prepared from cell cultures or tissues in T-PER tissue protein extraction reagent (Pierce) containing a mixture of protease inhibitors (Roche). A pool of 50 μg total protein for each group containing equal amounts of protein extract isolated from individual animals was separated by NuPAGE 4-12% Bis-Tris gel (Invitrogen) and transferred to PVDF. The membranes were probed with primary antibodies against total Smad2, p-Smad2 or E-cadherin (1:1000; Cell Signaling), endoglin, osteopontin (1:500; R&D Systems), IGFBP-1, IGFBP-2 (1:500; Abcam) followed by HRP-conjugated secondary antibody (1:2000; Cell Signaling). The membranes were stripped and re-probed with antibody against α-tubulin (1:1000; Cell Signaling).
# Zinc-formalin fixed paraffin tumor tissue sections of 4 μm in thickness were prepared. […] The immunostained tissue sections were analyzed and photographed using a Nikon Eclipse 90i microscope equipped with DS-Ril camera. […]
# [2] = system: ovarian tumors in inh-KO mice; assay: Light microscopy (H&E) of ovaries of inh-KO mice; assay type: in vivo, mouse; conditions: female inh-KO mice; FIG. 7A
# Experimental: as §1
# Testes and ovaries from inh-KO mice were fixed with Zinc-formalin. Tissue sections were subjected to H&E staining and then examined with a Nikon Eclipse 90i microscope.
# IGFBP-1 = assay: Western blot of IGFBP-1 in ovarian tumors of inh-KO mice; assay type: in vivo, mouse; conditions: FIG. 8D
# Experimental: as §1, §2
# caspase-3 [3] = assay: Active caspase-3 immunostaining in gonadal tumor sections of inh-KO mice; assay type: in vivo, mouse; conditions: ovarian and testicular tissue sections of inh-KO mice, regions of residual tumor cells; FIG. 9
# Experimental: as §1
# (§3) Zinc-formalin fixed paraffin tumor tissue sections of 4 μm in thickness were prepared. The sections were subjected to antigen retrieval by microwave 3 min in Unmask solution (Vector H-3300) followed by incubation in 10 μg/ml Proteinase-K for 20 min and in 1% H2O2 in dH2O for 10 min at room temperature. The sections were further incubated in 0.1% Tween-20 in PBS for 3 min to permeabilize the cell membrane and in goat serum for 30 min to block non-specific binding. The sections were then incubated at room temperature with specific primary antibody for 3 hours followed by incubation in biotinylated or fluorescently labeled secondary antibody. Substrate developed in Vector SG kit (SK-4700) or DAB and nuclear-counterstained in Vector Fast Red (H-3403) or in hematoxylin. The immunostained tissue sections were analyzed and photographed using a Nikon Eclipse 90i microscope equipped with DS-Ril camera. […]
# VEGF = VEGF immunostaining in TOV-21G xenograft tumor sections; assay type: in vivo, mouse; conditions: treated vs untreated sections (strong immunostaining); FIG. 15A
# Experimental: (§4) 5×10^6 TOV-21G ovarian cancer cells were implanted subcutaneously into individual female athymic nu/nu mice (Harlan). Treatment was initiated at day 12 after tumor implantation, when the average tumor volume reached approximately 150 mm^3. The mice received PBS, sActRIIB (30 mg/kg, SC, 1×/week) or activin-A antibody (30 mg/kg, SC, 2×/week). In a separate chemotherapy combination experiment, the mice were treated with PBS, sActRIIB (10 mg/kg, SC, 1×/week), 5-FU (50 mg/kg, IP, 3 cycles, 4 daily injections per cycle) or sActRIIB and 5-FU combination at the same doses above.
# as §3, with “Substrate developed in Vector SG kit (SK-4700) or DAB and nuclear-counterstained in Vector Fast Red (H-3403) or in hematoxylin.” left out
# caspase-3 [4] = assay: Active caspase-3 immunostaining in TOV-21G xenograft tumor sections; assay type: in vivo, mouse; conditions: FIG. 15C
# Experimental: as §4
# as §3, with “Substrate developed in Vector SG kit (SK-4700) or DAB and nuclear-counterstained in Vector Fast Red (H-3403) or in hematoxylin.” left out
# [5] = system: DNA fragmentation (apoptosis) in TOV-21G tumors; assay: TUNEL assay in TOV-21G xenograft tumor sections; assay type: in vivo, mouse; conditions: FIG. 15C
# Experimental: as §4
# Cell apoptosis in TOV-21G tumors was analyzed by measuring the amounts of fragmented DNA in the tumor sections using the DeadEnd Fluorometric TUNEL System following the manufacturer's recommended protocols (Promega, G3250). The fluorescein-12-dUTP-labeled DNA was visualized by Nikon fluorescence microscopy.
# activin-A (βA) mRNA = assay: Endogenous activin-A (βA) mRNA in cell cultures (real-time RT-PCR); assay type: cell-based, human, bovine; conditions: TOV21G, BAEC, MRC-5, CCD-Lu, U937 and THP-1 cultures treated with recombinant activin-A, without or with sActRIIB; FIG. 18
molecule,measurement,setting,value
"sActRIIB: extracellular domain of human activin type-2B receptor fused to IgG2 Fc, expressed in CHO cells; sequence in the 26th table (protein, left off: a dimerising Fc or GST) ETRWCIYYNANWELERTNQGLERCEGEQDKRLHCYASWRNSSGTIELVKKGCWLDDFNCYDRQECVATEENPQVYFCCCEGNFCNERFTHLPEAGGPEVTYEPPPTAPTGGGGSVECPPCPAPPVAGPSVFLFPPKPKDTLMISRTPEVTCVVVDVSHEDPEVQFNWYVDGVEVHNAKTKPREEQFNSTFRVVSVLTVVHQDWLNGKEYKCKVSNKGLPAPIEKTISKTKGQPREPQVYTLPPSREEMTKNQVSLTCLVKGFYPSDIAVEWESNGQPENNYKTTPPMLDSDGSFFLYSKLTVDKSRWQQGNVFSCSVMHEALHNHYTQKSLSLSPGK",serum activin-A levels,"activin-A; inh-KO mice with established gonadal tumors, within one day after administration, FIG. 2A, 2B",reduced the elevated activin-A in the inh-KO mice to normal control levels
same,duration of activin-A-neutralizing effect,activin-A; inh-KO mice,persisted throughout the 14-day study period
same,testicular tumor mass,[1],dramatic regression of testicular tumor masses to the WT control levels
same,E-cadherin immunoreactivity in ovarian sections,E-cadherin; FIG. 6B,reappearance of distinctive E-cadherin immunoreactivity
same,E-cadherin protein in ovarian tumors (Western blot),"E-cadherin; single injection, FIG. 6A",dramatically restored the lost E-cadherin
same,ovarian morphology (light microscopy),[2],"the ovaries were normal in size and contained many recognizable follicles, minimal tumor cell invasion and few hemorrhagic lesions"
same,IGFBP-1 induction (Western blot),IGFBP-1,abolished completely
same,active caspase-3 immunostaining,caspase-3 [3],strong immunostaining of active caspase-3
same,VEGF immunostaining in TOV-21G tumor sections,VEGF,virtually none
same,active caspase-3 in TOV-21G tumors,caspase-3 [4],profound increases
same,DNA fragmentation (TUNEL) in TOV-21G tumors,[5],profound increases
same,endogenous βA mRNA expression,activin-A (βA) mRNA,blocked completely
